# Source: PMC4442312 (eLife, 2015)
# Ends that are not written are not given here. Me3 = tri-methylated lysine; Me2 = di-methylated lysine
# T1: T7-ORCA (full-length) (human, UniProt Q9UFC0 1-647)
# T1 construct: ORCA/LRWD1, full length; also called T7-tagged ORCA; full-length T7-ORCA; source: U2OS, transiently transfected, in lysate
# T1 sequence (looked up): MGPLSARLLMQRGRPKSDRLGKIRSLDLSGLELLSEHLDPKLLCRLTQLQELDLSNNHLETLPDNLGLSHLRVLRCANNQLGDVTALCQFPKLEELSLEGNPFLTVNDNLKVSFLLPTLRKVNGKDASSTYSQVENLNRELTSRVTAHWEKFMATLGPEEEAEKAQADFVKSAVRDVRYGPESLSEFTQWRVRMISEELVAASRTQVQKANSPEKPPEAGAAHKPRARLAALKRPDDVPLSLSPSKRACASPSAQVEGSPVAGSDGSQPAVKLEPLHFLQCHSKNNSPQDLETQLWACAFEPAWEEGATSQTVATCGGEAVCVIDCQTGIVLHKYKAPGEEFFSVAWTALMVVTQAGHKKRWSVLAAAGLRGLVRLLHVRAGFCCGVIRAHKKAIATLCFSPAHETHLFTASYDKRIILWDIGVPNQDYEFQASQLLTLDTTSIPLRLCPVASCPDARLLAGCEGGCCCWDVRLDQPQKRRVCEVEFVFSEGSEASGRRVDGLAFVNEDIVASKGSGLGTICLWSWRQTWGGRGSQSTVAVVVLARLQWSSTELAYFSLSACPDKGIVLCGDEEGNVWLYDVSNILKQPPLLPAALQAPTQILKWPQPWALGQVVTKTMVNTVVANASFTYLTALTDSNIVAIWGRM
# T2: His-ORCA (baculovirus) (human, UniProt Q9UFC0 1-647)
# T2 construct: ORCA/LRWD1 in pFastBac HT-B; also called purified His-tagged-ORCA; baculovirally purified His-ORCA; source: Hi5 insect cells (baculovirus), nuclear extract, 45% ammonium sulfate precipitation; called 'baculovirally purified'
# T2 sequence (looked up): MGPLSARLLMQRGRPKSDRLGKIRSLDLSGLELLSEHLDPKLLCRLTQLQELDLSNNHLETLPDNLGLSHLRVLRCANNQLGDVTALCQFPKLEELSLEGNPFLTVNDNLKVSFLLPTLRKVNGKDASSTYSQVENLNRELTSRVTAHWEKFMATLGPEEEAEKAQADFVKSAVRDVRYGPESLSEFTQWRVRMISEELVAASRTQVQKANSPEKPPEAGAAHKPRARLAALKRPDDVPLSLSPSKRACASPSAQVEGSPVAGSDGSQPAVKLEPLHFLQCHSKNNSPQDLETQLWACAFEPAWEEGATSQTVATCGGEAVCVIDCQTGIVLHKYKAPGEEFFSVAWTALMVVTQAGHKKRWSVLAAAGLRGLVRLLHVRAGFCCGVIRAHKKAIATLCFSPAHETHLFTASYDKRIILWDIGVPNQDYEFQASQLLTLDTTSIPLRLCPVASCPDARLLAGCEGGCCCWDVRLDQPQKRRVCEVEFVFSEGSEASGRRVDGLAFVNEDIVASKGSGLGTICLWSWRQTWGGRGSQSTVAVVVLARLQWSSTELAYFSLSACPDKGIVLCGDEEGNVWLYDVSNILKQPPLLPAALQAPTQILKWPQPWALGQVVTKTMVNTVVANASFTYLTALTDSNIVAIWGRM
# Assays:
# T7-ORCA (full-length) = molecular target: T1, T7-ORCA (full-length); test: single-molecule pull-down (SiMPull); biotinylated T7 antibody on NeutrAvidin/PEG quartz slides; U2OS lysates co-expressing T7-ORCA and one YFP protein; TIRF, YFP photobleaching steps; biotinylated HA antibody as control; settings: partners not purified
# His-ORCA (baculovirus) = molecular target: T2, His-ORCA (baculovirus); test: pull-down; H3 (1-15) peptides coupled to SulphoLink (iodoalkyl agarose) resin, incubated with baculovirally purified His-ORCA 2 hr at RT in PK 150 buffer (150 mM KCl, 0.02% NP-40); immunoblot; settings: both partners purified
stoichiometry N (T7-ORCA (full-length)),binding result (His-ORCA (baculovirus)),Binder
,binds,"CARTKQTARK(Me)STGGKA (a cysteine at the N terminus, for coupling to the resin; human histone H3, amino acids 1-15; also called H3K9me1 peptide; source: synthetic peptide (Biomer technology), coupled to SulphoLink resin) [Histone H3 (1–15) peptide, K9 mono-methylated, N-terminal cysteine]"
,binds,"CARTKQTARK(Me2)STGGKA (a cysteine at the N terminus, for coupling to the resin; human histone H3, amino acids 1-15; also called H3K9me2 peptide; source: synthetic peptide (Biomer technology), coupled to SulphoLink resin) [Histone H3 (1–15) peptide, K9 di-methylated, N-terminal cysteine]"

# Continued, binder first:
Binder,stoichiometry N (T7-ORCA (full-length)),binding result (His-ORCA (baculovirus))
"YFP-Suv39H1 (enzyme, UniProt O43463 1-412, looked up, Suv39H1; human clones in pEYFP and pSV2-YFP-mSuv39H1 are both named in the methods; source: U2OS, transiently transfected, in lysate) MAENLKGCSVCCKSSWNQLQDLCRLAKLSCPALGISKRNLYDFEVEYLCDYKKIREQEYYLVKWRGYPDSESTWEPRQNLKCVRILKQFHKDLERELLRRHHRSKTPRHLDPSLANYLVQKAKQRRALRRWEQELNAKRSHLGRITVENEVDLDGPPRAFVYINEYRVGEGITLNQVAVGCECQDCLWAPTGGCCPGASLHKFAYNDQGQVRLRAGLPIYECNSRCRCGYDCPNRVVQKGIRYDLCIFRTDDGRGWGVRTLEKIRKNSFVMEYVGEIITSEEAERRGQIYDRQGATYLFDLDYVEDVYTVDAAYYGNISHFVNHSCDPNLQVYNVFIDNLDERLPRIAFFATRTIRAGEELTFDYNMQVDPVDMESTRMDSNFGLAGLPGSPKKRVRIECKCGTESCRKYLF",1 Suv39H1 per ORCA,
"CARTKQTARK(Me3)STGGKA (a cysteine at the N terminus, for coupling to the resin; human histone H3, amino acids 1-15; also called H3K9me3 peptide; source: synthetic peptide (Biomer technology), coupled to SulphoLink resin) [Histone H3 (1–15) peptide, K9 tri-methylated, N-terminal cysteine]",,binds
"YFP-ORC1 (natural protein, UniProt Q13415 1-861, looked up, origin recognition complex subunit 1; source: U2OS, transiently transfected, in lysate) MAHYPTRLKTRKTYSWVGRPLLDRKLHYQTYREMCVKTEGCSTEIHIQIGQFVLIEGDDDENPYVAKLLELFEDDSDPPPKKRARVQWFVRFCEVPACKRHLLGRKPGAQEIFWYDYPACDSNINAETIIGLVRVIPLAPKDVVPTNLKNEKTLFVKLSWNEKKFRPLSSELFAELNKPQESAAKCQKPVRAKSKSAESPSWTPAEHVAKRIESRHSASKSRQTPTHPLTPRARKRLELGNLGNPQMSQQTSCASLDSPGRIKRKVAFSEITSPSKRSQPDKLQTLSPALKAPEKTRETGLSYTEDDKKASPEHRIILRTRIAASKTIDIREERTLTPISGGQRSSVVPSVILKPENIKKRDAKEAKAQNEATSTPHRIRRKSSVLTMNRIRQQLRFLGNSKSDQEEKEILPAAEISDSSSDEEEASTPPLPRRAPRTVSRNLRSSLKSSLHTLTKVPKKSLKPRTPRCAAPQIRSRSLAAQEPASVLEEARLRLHVSAVPESLPCREQEFQDIYNFVESKLLDHTGGCMYISGVPGTGKTATVHEVIRCLQQAAQANDVPPFQYIEVNGMKLTEPHQVYVQILQKLTGQKATANHAAELLAKQFCTRGSPQETTVLLVDELDLLWTHKQDIMYNLFDWPTHKEARLVVLAIANTMDLPERIMMNRVSSRLGLTRMCFQPYTYSQLQQILRSRLKHLKAFEDDAIQLVARKVAALSGDARRCLDICRRATEICEFSQQKPDSPGLVTIAHSMEAVDEMFSSSYITAIKNSSVLEQSFLRAILAEFRRSGLEEATFQQIYSQHVALCRMEGLPYPTMSETMAVCSHLGSCRLLLVEPSRNDLLLRVRLNVSQDDVLYALKDE",1 Orc1 per ORCA,
